US20220332776A1, “ANTIBODY […] INDUCED DIMERIZERS (AbCID) AS MOLECULAR […] AND USES THEREOF” (The Regents of the University of California, priority 2019, published 2022)

Key:
[1] = test system: scFab-TC1-eGFP fusion protein; test: IMiD-induced degradation of scFab-TC1-eGFP in HEK 293T cells, flow cytometry for GFP fluorescence; type: cell-based; details: HEK 293T cells transfected with scFab-TC1-eGFP; 1000 nM, 100 nM or 10 nM for 20 hours; GFP fluorescence intensity
Description: Fab TC1 was converted into a previously described single-chain Fab construct using Gibson cloning (Hornsby, et al., Mol. Cell. Proteomics, 14:2833-2847 (2015)) and subsequently fused to eGFP by Gibson cloning into a pcDNA3.1 vector to produce an expression vector encoding an scTC1-eGFP fusion protein.
K562 and HEK293T cells utilized were from frozen stocks maintained by the Wells lab. The cell lines were not authenticated before use. No test for mycoplasma contamination was performed. Cells expressing scTC1-eGFP were transfected with FugeneHD transfection reagent purchased from Promega using the manufacturer's protocol. Unless otherwise noted all Jurkat and K562 cells lines were cultured in RPMI supplemented with 10% FBS and 1× Pen/Strep. CD19^+ K562 cells were maintained in puromycin (2 μg/mL). HEK293T cells containing the Gal4-UAS-Fluc operon were maintained in High Glucose DMEM supplemented with 10% FBS, 1× Pen/Strep, and puromycin (2 μg/mL). All cell lines were cultured at 37° C. under 5% CO2.
HEK 293T cells (ATCC® CRL-3216™) were transfected to express scFab-TC1-eGFP. Transfected cells were treated with thalidomide, lenalidomide, or pomalidomide at 1000 nM, 100 nM, or 10 nM for 20 hours, after which GFP fluorescence intensity was measured by flow cytometry. Treatment with DMSO was included as a negative control.

[2] = molecular target: T1, cereblon IMiD-binding domain (Homo sapiens, UniProt Q96SW2); test: Biolayer interferometry binding kinetics of Fabs to cereblon IMiD-binding domain; details: for binding to the cereblon IMiD-binding domain alone: absence of IMiD
T1 construct: TEV cut site; HIS6 tag; made in house; host or cells: E. coli BL21(DE3)
Description: Biolayer interferometery data were measured using an Octet RED384 instrument (ForteBio). Biotinylated cereblon was immobilized on a Streptavidin (SA) biosensor using a 200 nM solution. Serial dilutions of Fabs in kinetics buffer (PBS, pH 7.4, 0.05% Tween-20, 0.2% BSA, 10 μM biotin) with IMiD (1 μM) or vehicle (0.05% DMSO) were used as analyte. Affinity (KD) and kinetic parameters (kon and koff) were calculated from a global fit (1:1) of the data using the Octet RED384 software.
(§1) The unique Fabs from Example 1 were sub-cloned into a bacterial expression vector, expressed, and purified (Hornsby, et al., Mol. Cell. Proteomics, 14:2833-2847 (2015)). […] To further profile the Fabs, we characterized the kinetics of cereblon IMiD-binding domain binding for Fab-TC2 and Fab-PC1 in the presence or absence of their respective IMiD by biolayer interferometry (FIGS. 3A and 3B) (Shah, et al., J. Vis. Exp., e51383 (2014)).

[3] = molecular target: T2, cereblon IMiD-binding domain (SEQ ID NO: 25) (Homo sapiens, UniProt Q96SW2); test: Fab ELISA with cereblon IMiD-binding domain in the presence or absence of IMiD; details: thalidomide, lenalidomide or pomalidomide, FIG. 2G
T2 construct: TEV cut site; HIS6 tag; made in house; host or cells: E. coli BL21(DE3)
Description: ELISAs were performed according to standard protocols. […] 20 nM of biotinylated cereblon was captured on the NeutrAvidin-coated wells for 30 minutes followed by the addition of various concentrations of Fab with either 5 μM thalidomide, lenalidomide, or pomalidomide or 0.05% DMSO for 30 minutes. The bound Fabs were then detected using a horseradish peroxidase (HRP)-conjugated anti-Fab monoclonal antibody (Jackson ImmunoResearch 109-036-097).
as §1

[4] = molecular target: T3, pomalidomide-bound cereblon IMiD-binding domain (Pongo abelii (Sumatran orangutan) …, UniProt Q5R6Y2 306-414, biotinylated on its AviTag); test: Fab-phage competition ELISA (OD450): binding to immobilized IMiD-bound cereblon IMiD-binding domain with 20 nM soluble competitor divided by binding without competitor
T3 construct: not shown: TEV cut site, AviTag and HIS6 tag fused to the domain
T3 sequence: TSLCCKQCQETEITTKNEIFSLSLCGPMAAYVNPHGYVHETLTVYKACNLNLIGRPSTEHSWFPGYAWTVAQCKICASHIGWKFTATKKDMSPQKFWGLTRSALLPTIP

[5] = in the presence of lenalidomide
[6] = in the presence of pomalidomide

## Nc1cccc2c1CN(C1CCC(=O)NC1=O)C2=O (stereo not drawn) [lenalidomide]
[1]
  GFP expression compared to the DMSO control: reduced GFP expression

## Nc1cccc2c1C(=O)N(C1CCC(=O)NC1=O)C2=O (stereo not drawn) [pomalidomide]
[1]
  GFP expression compared to the DMSO control: reduced GFP expression

## O=C1CCC(N2C(=O)c3ccccc3C2=O)C(=O)N1 (stereo not drawn) [thalidomide]
[1]
  GFP expression compared to the DMSO control: reduced GFP expression

B1: Fab-TC2: Fab-phage clone from thalidomide-cereblon IMiD-binding domain selection; CDRs SEQ ID NO: 2, 7, 12, 21, 22, 17 (antibody)
heavy: EISEVQLVESGGGLVQPGGSLRLSCAASGFNVSSSSIHWVRQAPGKGLEWVASIYSYYGSTYYADSVKGRFTISADTSKNTAYLQMNSLRAEDTAVYYCARTDSWYYYRYGGMDYWGQGTLVTVSSASTKGPSVFPLAPSSKSTSGGTAALGCLVKDYFPEPVTVSWNSGALTSGVHTFPAVLQSSGLYSLSSVVTVPSSSLGTQTYICNVNHKPSNTKVDKKVEPKSCDKTHTGGSHHHHHH
light: SDIQMTQSPSSLSASVGDRVTITCRASQSVSSAVAWYQQKPGKAPKLLIYSASSLYSGVPSRFSGSRSGTDFTLTISSLQPEDFATYYCQQYSWWWMPITFGQGTKVEIKRTVAAPSVFIFPPSDSQLKSGTASVVCLLNNFYPREAKVQWKVDNALQSGNSQESVTEQDSKDSTYSLSSTLTLSKADYEKHKVYACEVTHQGLSSPVTKSFNRGECGGSDYKDDDDK
[2]
  binding to the cereblon IMiD-binding domain alone: no significant binding
[2]; [5]
  binding compared to binding in the presence of thalidomide: less potent binding
  binding to the cereblon IMiD-binding domain: potent and reversible binding
[2]; [6]
  binding compared to binding in the presence of thalidomide: less potent binding
  binding to the cereblon IMiD-binding domain: potent and reversible binding
[2]; in the presence of thalidomide
  binding to the cereblon IMiD-binding domain: potent and reversible binding
[3]
  binding to the cereblon IMiD-binding domain bound to a different IMiD than the one used for selection: all except one of the Fabs (Fab-phage clone TC2) was able to bind

B2: Fab-PC1 (Fab)
heavy: EISEVQLVESGGGLVQPGGSLRLSCAASGFNVSSYSIHWVRQAPGKGLEWVASISSYSGSTSYADSVKGRFTISADTSKNTAYLQMNSLRAEDTAVYYCARSYFVEYYYYYGWPWGLDYWGQGTLVTVSSASTKGPSVFPLAPSSKSTSGGTAALGCLVKDYFPEPVTVSWNSGALTSGVHTFPAVLQSSGLYSLSSVVTVPSSSLGTQTYICNVNHKPSNTKVDKKVEPKSCDKTHTGGSHHHHHH
light: SDIQMTQSPSSLSASVGDRVTITCRASQSVSSAVAWYQQKPGKAPKLLIYSASSLYSGVPSRFSGSRSGTDFTLTISSLQPEDFATYYCQQSSYSYLFTFGQGTKVEIKRTVAAPSVFIFPPSDSQLKSGTASVVCLLNNFYPREAKVQWKVDNALQSGNSQESVTEQDSKDSTYSLSSTLTLSKADYEKHKVYACEVTHQGLSSPVTKSFNRGECGGSDYKDDDDK
notes: chains assembled here by putting the CDRs in place of the scaffold's own CDR stretches; also called Fab-phage clone PC1
[4]
  competition selectivity ratio: < 0.5

B3: Fab-PC1: Fab-phage clone from pomalidomide-cereblon IMiD-binding domain selection; CDRs SEQ ID NO: 4, 9, 14, 21, 22, 19 (antibody)
heavy: EISEVQLVESGGGLVQPGGSLRLSCAASGFNVSSYSIHWVRQAPGKGLEWVASISSYSGSTSYADSVKGRFTISADTSKNTAYLQMNSLRAEDTAVYYCARSYFVEYYYYYGWPWGLDYWGQGTLVTVSSASTKGPSVFPLAPSSKSTSGGTAALGCLVKDYFPEPVTVSWNSGALTSGVHTFPAVLQSSGLYSLSSVVTVPSSSLGTQTYICNVNHKPSNTKVDKKVEPKSCDKTHTGGSHHHHHH
light: SDIQMTQSPSSLSASVGDRVTITCRASQSVSSAVAWYQQKPGKAPKLLIYSASSLYSGVPSRFSGSRSGTDFTLTISSLQPEDFATYYCQQSSYSYLFTFGQGTKVEIKRTVAAPSVFIFPPSDSQLKSGTASVVCLLNNFYPREAKVQWKVDNALQSGNSQESVTEQDSKDSTYSLSSTLTLSKADYEKHKVYACEVTHQGLSSPVTKSFNRGECGGSDYKDDDDK
[2]
  binding to the cereblon IMiD-binding domain alone: no significant binding
[2]; [5]
  binding to the cereblon IMiD-binding domain: potent and reversible binding
[2]; [6]
  binding to the cereblon IMiD-binding domain: potent and reversible binding
[2]; in the presence of thalidomide
  binding to the cereblon IMiD-binding domain: potent and reversible binding
